# Measurements reported in patent publication US10689452 (UNIVERSIT T STUTTGART, dated 2020).
# T1: human TNFR1-Fc fusion protein (human, UniProt P19438 29-211)
# T1 construct: range 29-211; Made in stably transfected HEK293 cells; coated on ELISA plates or immobilised on QCM chips; also called huTNFR1-Fc; human TNFR-Fc; not shown: Fc part from vector pSecTagL1-Fc
# T1 sequence (looked up): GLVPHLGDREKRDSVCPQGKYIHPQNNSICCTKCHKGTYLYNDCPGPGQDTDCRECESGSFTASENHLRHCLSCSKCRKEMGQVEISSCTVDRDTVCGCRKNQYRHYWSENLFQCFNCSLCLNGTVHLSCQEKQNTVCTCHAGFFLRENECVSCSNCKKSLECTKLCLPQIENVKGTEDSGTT
# T2: human TNFR1 on cells (HT1080, HeLa, Kym-1) (human, UniProt P19438 30-455)
# T2 sequence (looked up): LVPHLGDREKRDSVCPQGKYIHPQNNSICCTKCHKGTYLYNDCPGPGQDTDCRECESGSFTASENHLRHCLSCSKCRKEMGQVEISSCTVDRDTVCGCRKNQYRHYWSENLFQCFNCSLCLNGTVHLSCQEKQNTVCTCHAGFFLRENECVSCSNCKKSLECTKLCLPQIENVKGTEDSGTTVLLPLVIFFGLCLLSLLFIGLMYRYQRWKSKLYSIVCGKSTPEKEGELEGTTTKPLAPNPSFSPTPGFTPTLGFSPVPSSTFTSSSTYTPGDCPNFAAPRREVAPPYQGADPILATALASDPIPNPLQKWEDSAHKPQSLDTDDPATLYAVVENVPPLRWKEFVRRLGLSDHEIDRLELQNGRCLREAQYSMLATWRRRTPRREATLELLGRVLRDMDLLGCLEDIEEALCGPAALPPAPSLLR
# Tests used:
# [1] = target: T1, human TNFR1-Fc fusion protein; assay: ELISA on coated human TNFR1-Fc, reference curve next to Fv13.7-Fckih0DS
# Method: (§1) Microtiter plates were coated with 100 µl of the indicated protein (1 µg/ml in PBS, see Table 3.3) and incubated at 4° C. over night. The residual binding sites were blocked with 2% MPBS (skim milk in PBS, 200 µl per well) at room temperature for 2 hours and subsequently washed twice with PBS. 100 µl of the samples diluted in 2% MPBS were incubated at room temperature for 1 hour prior to the last incubation step with 100 µl of the HRP conjugated detection antibodies in 2% MPBS. In the case of competition experiments, both analyzed protein samples were prepared individually (either titrated or diluted to a single concentration) and mixed before they were applied to the plate. Bound protein was detected with 100 µl TMB substrate solution, the HRP-reaction was stopped by the addition of 50 µl 1 M H2SO4 and the absorption at the wavelength of 450 nm was measured using the Infinite microtiter plate reader (TECAN, Maennedorf, Switzerland). Between each incubation step and in advance of the detection, the plates were washed three times with PBST and twice with PBS.
# [2] = target: T1, human TNFR1-Fc fusion protein; assay: QCM, human TNFR1-Fc, moderate receptor density (86 Hz), biphasic fit, KD1 (low-affinity part)
# Method: (§2) Real-time binding dynamics in protein-protein interactions were determined by quartz crystal microbalance measurements (A-100 C-Fast or Cell-200 C-Fast, Attana, Stockholm, Sweden). One of the binding partners (ligand, e.g. TNFR1-Fc) was chemically immobilized on a carboxyl sensor chip according to the manufacturer's protocol at different densities (nearly 200 Hz in the case of saturating conditions to confirm previously published results and 50-100 Hz, in particular at about 50 Hz, to establish conditions of lower receptor density, better resembling the situation on the cellular surface). Binding experiments were performed with samples (analyte) diluted in PBST (PBS, 0.1% Tween 20) at pH 7.4 with a flow rate of 25 µl/min at 37° C. The chip was regenerated with 25 µl 5 mM NaOH or 20 mM glycine, pH 2.0. Every third measurement, an injection of running buffer was measured which was subtracted from the binding curve. Data were collected using the software provided by Attana for the particular device and analyzed by Attaché Office Evaluation software (Attana, Stockholm, Sweden) and TraceDrawe (ridgview instruments, Vange, Sweden).
# [3] = target: T2, human TNFR1 on cells (HT1080, HeLa, …); assay: cell-based or functional assay
# [4] = target: T1, human TNFR1-Fc fusion protein; assay: QCM, human TNFR1-Fc immobilised, high receptor density (195 Hz)
# Method: (§3) FIG. 1. […] Applied were triplicates of five concentrations between 3.9 nM and 62.5 nM.
# as §2
# [5] = target: T1, human TNFR1-Fc fusion protein; assay: QCM, human TNFR1-Fc immobilised, low receptor density (48 Hz)
# Method: as §2
# [6] = target: T1, human TNFR1-Fc fusion protein; assay: standard ELISA, human TNFR1-Fc
# Method: as §3, §1
# [7] = target: T1, human TNFR1-Fc fusion protein; assay: ELISA, human TNFR1-Fc
# [8] = target: T1, human TNFR1-Fc fusion protein; assay: QCM, human TNFR1-Fc, moderate receptor density (86 Hz), biphasic fit, kon1 (low-affinity part)
# Method: as §2
# [9] = target: T2, human TNFR1 on cells (HT1080, HeLa, …); assay: cell-based or functional assay; remark: listed apart in the source
# [10] = target: T1, human TNFR1-Fc fusion protein; assay: QCM, human TNFR1-Fc, moderate receptor density (86 Hz), biphasic fit, kon2 (high-affinity part)
# Method: as §2
# [11] = target: T1, human TNFR1-Fc fusion protein; assay: QCM, human TNFR1-Fc, moderate receptor density (86 Hz), biphasic fit, koff2 (high-affinity part)
# Method: as §2
# [12] = target: T1, human TNFR1-Fc fusion protein; assay: QCM, human TNFR1-Fc, moderate receptor density (86 Hz), biphasic fit, koff1 (low-affinity part)
# Method: as §2
binder,measurement,setting,value
"ATROSAB (antibody, IgG1, V domains shown, Humanized full-length IgG1 with a modified Fc region deficient in mediating effector functions (made according to WO2012035141); also called full length IgG ATROSAB) VH: QVQLVQSGAEVKKPGSSVKVSCKASGYTFTDFYINWVRQAPGQGLEWIGEIYPYSGHAYYNEKFKARVTITADKSTSTAYMELSSLRSEDTAVYYCARWDFLDYWGQGTTVTVSS VL: DIVMTQSPLSLPVTPGEPASISCRSSQSLLHSNGNTYLHWYLQKPGQSPQLLIYTVSNRFSGVPDRFSGSGSGTDFTLKISRVEAEDVGVYYCSQSTHVPYTFGGGTKVEIKR",EC50 (read off the curve),[1],~0.2 nM
same,Kd,[2],78 nM
same,"Factor, IC50 LT (ATROSAB against H398)",[3],12 fold
same,"Factor, IC50 TNF (ATROSAB against H398)",[3],10 fold
same,"IC50, LT [nM] (inhibition of IL-8 release from HT1080 cells induced by LTα)",[3],7.6 nM
same,"IC50, TNF [nM] (inhibition of IL-8 release from HT1080 cells induced by 0.1 nM TNF)",[3],42 nM
same,"Factor (KD high density chip, ATROSAB against H398)",[4],1.5 fold
same,Kd,[4],0.35 nM
same,"Factor (KD low density chip, ATROSAB against H398)",[5],2.8 fold
same,"Factor (koff low density chip, ATROSAB against H398)",[5],7.6 fold
same,Kd,[5],4.5 nM
same,fold faster kon than H398,[5],2.6 fold
same,koff,[5],0.0047 s⁻¹
same,EC50,[6],0.25 nM
same,"Factor (EC50, ATROSAB against H398)",[6],1.7 fold
same,fold weaker binding (higher EC50) compared with IgG13.7,[7],1.4 fold
same,kon,[8],282000 M⁻¹ s⁻¹
same,"IC50, Cytotox (nM); inhibition of Kym-1 cell death by 0.01 nM TNF",[9],24 nM
same,"IC50, IL-6 (nM); inhibition of the response of HeLa cells to 0.1 nM TNF",[9],179 nM
same,"IC50, IL-8 (nM); inhibition of the response of HT1080 cells to 0.1 nM TNF",[9],118 nM
same,"IL-6 release (pg/ml), HeLa cells",[9],231 pg/mL
same,"IL-8 release (pg/ml), HT1080 cells",[9],240 pg/mL
same,kon,[10],1.06e+06 M⁻¹ s⁻¹
same,koff,[11],0.000407 s⁻¹
same,koff,[12],0.0219 s⁻¹
